From patent publication US20180118846A1 (published 2018)

Assays:
[1] = target: T1, human Trop-2 (human, UniProt P09758 27-323); experiment: cell-based or functional assay
T1 sequence (looked up): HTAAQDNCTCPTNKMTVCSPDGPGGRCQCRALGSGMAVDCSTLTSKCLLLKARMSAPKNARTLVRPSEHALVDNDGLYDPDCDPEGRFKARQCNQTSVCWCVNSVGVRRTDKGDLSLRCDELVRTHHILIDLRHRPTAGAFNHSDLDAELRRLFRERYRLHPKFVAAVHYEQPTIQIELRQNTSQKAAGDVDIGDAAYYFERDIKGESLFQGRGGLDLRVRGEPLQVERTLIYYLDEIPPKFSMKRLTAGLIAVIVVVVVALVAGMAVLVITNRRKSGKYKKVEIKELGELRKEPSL

[2] = target: T2, mouse Trop-2 (mouse, UniProt Q8BGV3 25-270, limits assumed); experiment: not described (data not shown)
T2 sequence (looked up): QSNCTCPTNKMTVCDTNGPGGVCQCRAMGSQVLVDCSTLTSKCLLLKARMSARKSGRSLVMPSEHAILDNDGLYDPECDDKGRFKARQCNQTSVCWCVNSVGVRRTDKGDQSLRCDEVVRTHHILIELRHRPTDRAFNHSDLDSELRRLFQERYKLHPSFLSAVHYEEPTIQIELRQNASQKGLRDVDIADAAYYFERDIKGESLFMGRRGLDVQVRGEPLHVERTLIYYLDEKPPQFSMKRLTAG

[3] = target: mouse CD3 (mouse, UniProt P22646 22-108); experiment: not described (data not shown)
Sequence of mouse CD3 (P22646 22-108): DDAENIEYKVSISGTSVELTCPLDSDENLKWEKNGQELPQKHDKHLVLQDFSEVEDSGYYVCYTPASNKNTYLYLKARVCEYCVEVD

[4] = target: T1, human Trop-2; experiment: cell-based or functional assay; remark: listed apart in the source

B1: (E1)-3s, anti-Trop-2 x anti-CD3 trivalent bispecific DNL complex (two CH1-DDD2-Fab-hRS7 + one scFv-AD2-Okt3) (bispecific antibody)
heavy (part 1 of 2): QVQLQQSGSELKKPGASVKVSCKASGYTFTNYGMNWVKQAPGQGLKWMGWINTYTGEPTYTDDFKGRFAFSLDTSVSTAYLQISSLKADDTAVYFCARGGFGSSYWYFDVWGQGSLVTVSS
heavy (part 2 of 2): not shown
light: DIQLTQSPSSLSASVGDRVSITCKASQDVSIAVAWYQQKPGKAPKLLIYSASYRYTGVPDRFSGSGSGTDFTLTISSLQPEDFAVYYCQQHYITPLTFGAGTKVEIK
scFv: not shown
notes: also called (E1)-35; TROP2-targeting bsAb; not shown: human CH1, first 4 hinge residues and Gly/Ser linker; human kappa constant domain
- ex vivo T cell redirected killing of BxPC3, donor 1, IC50 [1]: 1.06 pM
- ex vivo T cell redirected killing of BxPC3, donor 2, IC50 [1]: 0.56 pM
- ex vivo T cell redirected killing of BxPC3, donor 3, IC50 [1]: 0.32 pM
- ex vivo T cell redirected killing of Capan-1, donor 1, IC50 [1]: 35.6 pM
- ex vivo T cell redirected killing of Capan-1, donor 2, IC50 [1]: 248 pM
- ex vivo T cell redirected killing of Capan-1, donor 4, IC50 [1]: 8.51 pM
- ex vivo T cell redirected killing of NCI-N87, donor 1, IC50 [1]: 6.76 pM
- ex vivo T cell redirected killing of NCI-N87, donor 2, IC50 [1]: 34 pM
- binding result [2]: no binding
- binding result [3]: no binding
- T-cell killing of BxPC3, IC50 [4]: 0.4 pM
- T-cell lysis of NCI-N87, very active donor, IC50 [4]: 0.37 pM
- T-cell lysis of NCI-N87, very active donor, with 0.1 nM 20*-2b, IC50 [4]: 0.05 pM
- T-cell lysis of NCI-N87, very active donor, with 0.1 nM peginterferonalfa-2a, IC50 [4]: 0.14 pM
- T-cell lysis of NCI-N87, very weak donor T cells, EC50 [4]: 39 pM
- T-cell lysis of NCI-N87, very weak donor T cells, with peginterferonalfa-2a, EC50 [4]: 1.4 pM
- T-cell mediated lysis of Capan-1, IC50 [4]: 29 pM
- T-cell mediated lysis of NCI-N87, IC50 [4]: 0.85 pM
